Data published in paper PMC10491184 (bioRxiv, 2023).
“And” between values parts separate entries of the source, which are not always exact repeats. Equal entries are not always repeated.

How the values were obtained:
[1] = biological target: T1, Rho (transcription termination factor) wt (Escherichia coli, UniProt P0AG30 1-419); experiment: fluorescence anisotropy
[2] = biological target: Escherichia coli transcription termination factor ρ F89S (E. coli, UniProt P0AG30 1-419, F89S); experiment: SEC
[3] = biological target: Escherichia coli transcription termination factor ρ K115E (E. coli, UniProt P0AG30 1-419, K115E); experiment: SEC
[4] = biological target: Escherichia coli transcription termination factor ρ, wildtype (E. coli, UniProt P0AG30 1-419); experiment: cryo-EM structure
[5] = biological target: Rho (transcription termination factor) wt;Rof Y13A (Escherichia coli;Escherichia coli, UniProt P0AG30;P0AFW8 1-419;1-84, |Y13A); experiment: fluorescence anisotropy
[6] = biological target: T1, Rho (transcription termination factor) …; experiment: fluorescence anisotropy; remark: listed apart in the source
[7] = biological target: Rho (transcription termination factor) wt;Rof D14A (Escherichia coli;Escherichia coli, UniProt P0AG30;P0AFW8 1-419;1-84, |D14A); experiment: fluorescence anisotropy

## UUUUUUUUUUUU (ssRNA) [rU12]
[1]
  binding result: binds

B1: Escherichia coli Rof, wildtype, tag-less (natural protein, E. coli)
chain: MNDTYQPINCDDYDNLELACQHHLMLTLELKDGEKLQAKASDLVSRKNVEYLVVEAAGETRELRLDKITSFSHPEIGTVVVSES
[2]
  binding result: binds
[3]
  binding result: binds
[4]
  stoichiometry N: 5 Rof molecules per ρ hexamer and 4 Rof molecules per ρ pentamer

## CCCCCCCCCCCCCCC (ssDNA) [dC15]
[5]
  binding result: binds
[6]
  Kd: 1 µM
[7]
  binding result: binds
